Measured values published in US20200368341A1.

Biological target: P. falciparum circumsporozoite protein (CSP) (Plasmodium falciparum) (UniProt P19597)
Experiment: cell-based or functional assay

UniProt P19597, sequence (P19597 19-374): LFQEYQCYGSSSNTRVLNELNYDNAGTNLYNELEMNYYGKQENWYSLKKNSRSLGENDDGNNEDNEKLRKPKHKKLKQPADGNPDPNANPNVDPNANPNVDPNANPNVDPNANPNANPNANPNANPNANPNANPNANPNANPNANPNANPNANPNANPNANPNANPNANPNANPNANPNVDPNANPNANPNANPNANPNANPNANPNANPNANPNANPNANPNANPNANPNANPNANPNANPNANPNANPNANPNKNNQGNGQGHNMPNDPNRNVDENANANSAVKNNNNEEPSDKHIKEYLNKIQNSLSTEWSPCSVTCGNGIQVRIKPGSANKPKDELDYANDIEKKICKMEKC

Substance: monoclonal antibody 2A10
- in vitro liver invasion assay: parasite burden in liver cells against the pre-immune control serum: > 2 log
